Laboratory results published in US7217686B1, “DNA sequence encoding oncofetal ferritin protein” (Gardino Investment N.V., priority 1999, dated 2007).
“And” between values parts separate entries of the source, which are not always exact repeats. Equal values may be shown once.

Key:
[1] = system: splenocytes from Balb/c mice transplanted with C57Bl bone marrow; test: In-vitro OFF1 treatment of splenocytes from transplanted Balb/c mice in MLR; type: cell-based
Description: (§1) Immunologic assay: Splenocytes from bone marrow transplanted (BMT) Balb/c mice were reacted as above in MLR against the donor C57Bl splenocytes or against non-related splenocytes, to measure their immunoresponsiveness to the corresponding alloantigens.
In further experiments we tested the in-vitro effect of OFF1 treatment on responsiveness of splenocytes from control BMT+PBS against both donor C57Bl stimulators and against ICR stimulators.

[2] = system: human bone marrow progenitor CFU-GM; test: CFU-GM colony assay with normal human bone marrow mononuclear cells; type: cell-based; settings: for number of CFU-GM colonies: scored after 14 days
Description: Bone marrow samples from 11 healthy volunteer donors were processed by density gradient separation using […] (Sigma diagnostics, St. Louis, Mo., USA) to obtain a purified population of mononuclear cells. Colony assays were performed in a plating medium containing final concentrations of 0.92% methyl cellulose (M-281 powder, 4,000 centipoise, Fisher Scientific Co., Fair Lawn, N.J., USA), rehydrated in Iscove's modified Dulbecco's medium containing 36 mM sodium bicarbonate (Gibco, Grand Island, N.Y., USA), 30% fetal bovine serum (FBS) (HyClone, Logan, Utah, USA) 0.292 mg/ml glutamine, 100 U/ml penicillin and 0.01 mg/ml streptomycin (Biological Industries, Beit Haemek, Israel). Growth factors used were […] GM-CSF Leucomax (Sandoz Pharma) and 5% vol/vol human phytohemagglutinin-M (Difco Laboratories, Detroit, Mich., USA)-induced conditioned medium (Cond. Med.) p43 (PLF) was added at concentration of 1 μg/mL and in neutralization experiments, p43 (PLF) was preincubated with 10× excess of CM-H-9 MoAb at 37° C. for 30 min and the complex added to the assay as above. The colony assay medium contained 10^5 mononuclear cells/ml and each 1 ml was plated into triplicate wells (333 μl/well) of a 24 well tissue culture plate (Greiner, Germany). Water was added to spaces between cells to maximize humidity during incubation of the cultures. The cultures were incubated at 37° C. in 5% CO2 and 55% relative humidity. Plates were scored after 14 days for colonies containing more than 50 cells.

[3] = system: C57Bl Donor lymphocytes in transplanted Balb/c mice; test: Bone marrow transplantation C57Bl into Balb/c, flow cytometry for donor K^b positive cells; type: in vivo; settings: Balb/c BMT treated with OFF1 (ex vivo 1 μg/ml, 10 μg i.p. for 14 days); 6 weeks post transplantation; results not shown
Description: Animals: C57BL/6 (H2^b) and BALB/c (H2^d) mice were purchased from Harlane. Donors and recipients were 8–10 wk of age at the time of BMT. All mice were housed in a specific pathogen-free facility in microisolator cages.
Ex-vivo induction of anergy in mixed lymphocyte reaction (MLR): C57Bl donor bone marrow (responder) was harvested 2 days before transplantation. Balb/c recipient (stimulator) spleen cells were irradiated at a midplane dose of 3300 cGy. The cells were resuspended in RPMI-1640 medium with 5% mouse serum to 4×10^6/ml and incubated with 1 μg/ml of OFF1 for 30 min.
The erythrocyte depleted mononuclear cell fraction of the marrow was resuspended at a concentration of 4×10^6/ml in the above medium in a Donor:Recipient ratio of 1:1. The cells were cultured in tissue culture flasks for 36 hours at 37° C. in 5% CO2, washed and resuspended to 2×10^7 cells/1 ml in PBS containing OFF1 (1 μg/ml).
Bone marrow Transplantation (BMT): Balb/c recipients were sublethely irradiated by exposing mice to 5;5 GRAY total body irradiation from a ^137Cesium source at a dose rate of 85 cGY/min.
Day 2 MLR cultured cells (10^7/0.5 ml) were injected intravenously to BALB/c mice pretreated with OFF1 ((10 μg) injected i.p.) (BMT+OFF1). […]
All results were obtained using FACS (Beckton Dickenson). […] 10,000 cells were analyzed for each determination.

[4] = system: splenocytes from Balb/c mice transplanted with C57Bl bone marrow; test: MLR of splenocytes from bone marrow transplanted Balb/c mice against alloantigens; type: cell-based
Description: as §1
Splenocytes obtained from Balb/c mice (K^b) treated with BMT+PBS (control) and with BMT+OFF1 were used as responder cells (R) and were reacted with C57Bl (K^b) splenocytes as stimulator cells (S) in MLR.

[5] = 11 donors, Cond. Med. 5% vol/vol, p43 (PLF) 1 μg/ml, GM-CSF 15 ng/ml

B1: OFF1: oncofetal ferritin 1 protein, purified from term placenta, termed also p43 (placental isoferritin, PLF) (protein)
chain: MTTASTSQVRQNYHQDSEAAINRQINLELYASYVYLSMSYYFDRDDVALKNFAKYFLHQSHEEREHAEKLMKLQNQRGGRIFLQDIKKPDCDDWESGLNAMECALHLEKNVNQSLLEFPSPISPSPSCWHHYTTNRPQPQHHLLRPRRRKRPHSIPTPILIFRSP
modifications: left off: a dimerising Fc or GST
P.I. (Proliferation Index), BMT + OFF1, in-vitro treatment OFF1 ([1]; Stimulator C57Bl): 1.3 | P.I. (Proliferation Index), BMT + PBS, in-vitro treatment OFF1 ([1]; Stimulator C57Bl): 1 | P.I. (Proliferation Index), BMT + OFF1, in-vitro treatment OFF1 ([1]; Stimulator ICR): 4.7 | P.I. (Proliferation Index), BMT + PBS, in-vitro treatment OFF1 ([1]; Stimulator ICR): 3.5 | MEDIAN number of CFU-GM colonies [2, 5]: 94 | RANGE of number of CFU-GM colonies [2, 5]: 0–748 | mean number of CFU-GM colonies (AVG.) [2, 5]: 169+/−216 and 169 | number of CFU-GM colonies ([2]; Bone Marrow No. 1, Cond. Med. 5% vol/vol, p43 (PLF) 1 μg/ml, GM-CSF 15 ng/ml): 280 | number of CFU-GM colonies ([2]; Bone Marrow No. 2, Cond. Med. 5% vol/vol, p43 (PLF) 1 μg/ml, GM-CSF 15 ng/ml): 748 | number of CFU-GM colonies ([2]; Bone Marrow No. 3, Cond. Med. 5% vol/vol, p43 (PLF) 1 μg/ml, GM-CSF 15 ng/ml): 152 | number of CFU-GM colonies ([2]; Bone Marrow No. 4, Cond. Med. 5% vol/vol, p43 (PLF) 1 μg/ml, GM-CSF 15 ng/ml): 28 | number of CFU-GM colonies ([2]; Bone Marrow No. 5, Cond. Med. 5% vol/vol, p43 (PLF) 1 μg/ml, GM-CSF 15 ng/ml): 94 | number of CFU-GM colonies ([2]; Bone Marrow No. 6, Cond. Med. 5% vol/vol, p43 (PLF) 1 μg/ml, GM-CSF 15 ng/ml): 6 | number of CFU-GM colonies ([2]; Bone Marrow No. 7, Cond. Med. 5% vol/vol, p43 (PLF) 1 μg/ml, GM-CSF 15 ng/ml): 0 | number of CFU-GM colonies ([2]; Bone Marrow No. 8, Cond. Med. 5% vol/vol, p43 (PLF) 1 μg/ml, GM-CSF 15 ng/ml): 242 | number of CFU-GM colonies ([2]; Bone Marrow No. 9, Cond. Med. 5% vol/vol, p43 (PLF) 1 μg/ml, GM-CSF 15 ng/ml): 8 | number of CFU-GM colonies ([2]; Bone Marrow No. 10, Cond. Med. 5% vol/vol, p43 (PLF) 1 μg/ml, GM-CSF 15 ng/ml): 210 | number of CFU-GM colonies ([2]; Bone Marrow No. 11, Cond. Med. 5% vol/vol, p43 (PLF) 1 μg/ml, GM-CSF 15 ng/ml): 94 | concentration giving the highest number of CFU-GM colonies ([2]; dose response, bone marrow progenitor cells from three donors (FIG. 10)): 1 μg/1 mL | Mean CFU-GM following preincubation with MoAb CM-H9 ([2]; p43 (PLF) 1 μg/mL preincubated with 10× excess of CM-H-9 MoAb at 37° C. for 30 min): 7+/−10 | K^b positive donor cells in bone marrow and spleen [3]: development of hematopoietic chimerism | P.I. (Proliferation Index), BMT + OFF1, in-vitro treatment None ([4]; Stimulator C57Bl): 1.3 | P.I. (Proliferation Index), BMT + OFF1 ([4]; Stimulator C57Bl, S/R Ratio 0): 1 | P.I. (Proliferation Index), BMT + OFF1 ([4]; Stimulator C57Bl, S/R Ratio 0.2): 1.3 | P.I. (Proliferation Index), BMT + OFF1 ([4]; Stimulator C57Bl, S/R Ratio 1): 1 | P.I. (Proliferation Index), BMT + OFF1 ([4]; Stimulator C57Bl, S/R Ratio 4): 1.1 | P.I. (Proliferation Index), BMT + OFF1, in-vitro treatment None ([4]; Stimulator ICR): 9.6 | P.I. (Proliferation Index), BMT + OFF1 ([4]; Stimulator ICR, S/R Ratio 0): 1 | P.I. (Proliferation Index), BMT + OFF1 ([4]; Stimulator ICR, S/R Ratio 0.2): 1.8 | P.I. (Proliferation Index), BMT + OFF1 ([4]; Stimulator ICR, S/R Ratio 1): 2.6 | P.I. (Proliferation Index), BMT + OFF1 ([4]; Stimulator ICR, S/R Ratio 4): 9.6 | response of splenocytes of BMT+OFF1 chimeric mice to donor C57Bl stimulators in MLR ([4]; any S/R ratios): completely anergic
